Measured values from paper PMC5022050, “The Crystal Structure of Peroxiredoxin Asp f3 Provides Mechanistic Insight into Oxidative Stress Resistance and Virulence of Aspergillus fumigatus” (Scientific Reports, 2016).
Changes are numbered by the printed parent chain. Names may count otherwise.

B1: Asp f3 wild type, recombinant, C-terminally His-tagged (enzyme)
chain: MGSGLKAGDSFPSDVVFSYIPWSEDKGEITACGIPINYNASKEWADKKVILFALPGAFTPVCSARHVPEYIEKLPEIRAKGVDVVAVLAYNDAYVMSAWGKANQVTGDDILFLSDPDARFSKSIGWADEEGRTKRYALVIDHGKITYAALEPAKNHLEFSSAETVLKHL
notes: also called Aspf3 WT; WT Asp f3; source: E. coli ClearColi BL21(DE3), purified (Ni-NTA, size-exclusion on Superdex 75); not shown: His6, C-terminal, kept
B2: Asp f3 C31S/C61S variant, recombinant, C-terminally His-tagged (enzyme)
chain: B1 chain with C32S, C62S
notes: also called serine variant; mimic of the reduced Asp f3; source: E. coli ClearColi BL21(DE3), purified (Ni-NTA, size-exclusion on Superdex 75); not shown: His6, C-terminal, kept

Molecular target: the molecule itself
Test: AUC; sedimentation equilibrium, PBS pH 7.4, ~5, ~15 and ~25 uM protein, 10000, 20000 and 30000 rpm, 25 °C; global fit with Sedfit and Sedphat

Row | Protein | stoichiometry N
1 | B1 | 2
2 | B2 | 2
